We go through 36 molecules from patent publication US12551573B2, “Compositions and methods for the targeting of PCSK9” (Scribe Therapeutics Inc., priority 2022, dated 2026).

B1: DOMAIN_6807 (protein, listed as Xenopus laevis)
chain: LVKFEEVAVVFSEDEWNLLSDQQRGLYMEVMKENYEHLIYLGYEVPVILSLLQDGGGISSDAGSQSKSQQVAVAEGSNVNS
B2: DOMAIN_7184 (protein)
chain: TQMQVKFDDIAVSFSQEEWKYLDEEQKELYREVMKENYQILISLGTGSSTTPKIISHIERGEEPYIRDEPVLVERKTGKSS
modifications: Microcaecilia unicolor
B3: DOMAIN_6445 (protein, listed as Alligator sinensis)
chain: MELREAFEDVAVYFTRKEWELLEDEDKELYRDLMLRNYQALVSLGYQGPTPGLICRIKQREVELWVCDDEHHGESSVSENL
B4: DOMAIN_9960 (protein, listed as Octodon degus)
chain: AVTMEDVTVTFTNEEWALLNPAQKRLYGDVMWETFRTISAIGRTWDSQQMEEEYKNYLRNLSNEEVAKCCRYTTFNQHENI
B5: DOMAIN_7353 (protein)
chain: AQMQVTFEDIAVFFCHEEWKYLDDGQKELYKEVMKENYETLISLGFLCEKPSLISKIEREEDPCVRDQQDFRERRRRLKSF
modifications: Microcaecilia unicolor
B6: DOMAIN_8424 (protein, listed as Peromyscus maniculatus)
chain: MDAVTYEDVQVSFTREEWTLLDPSQKSLYKDVMVETYRNLTAIGYKWEDQNIKKHHQCSRRHGRHERSNSAEKDYECEQCG
B7: DOMAIN_8746 (protein, listed as Mesocricetus auratus)
chain: SQGLVTFGDVAVVFSQEEWEWLSSEQRSLYWRVMLDNYRNLASLGLCASKPDMIALLEQGKDPCVLKRKTARGLRPDLEAV
B8: DOMAIN_8012 (protein, listed as Callipepla squamata)
chain: PSVPVTFRDVFVQFSRDEWALLDDEQKELHQSVMQSNYEVLMSLYCDLAKPEVLLQMERGEPCLPAEPDLQGAAVSLNPAA
B9: DOMAIN_8862 (protein)
chain: TLGLLSFNDVSLEFSWEEWQLLDSAQRYLYREVILENYSNLLSVGYHGTKPDLIFRLEQGEEPWILNAKMSTQNCPEVWED
modifications: Marmota monax
B10: DOMAIN_8317 (protein, listed as Mus caroli)
chain: CQALVTFEDVAVTFTDDEWKRLVPVQRALYKAVMLENYESIISLGLPVPRPDLILQFKRRGEPWMRGFHGSEEKAWPESVS
B11: DOMAIN_9489 (protein, listed as Dipodomys ordii)
chain: LASISFEDLAVTFTEEEWEHLDLGQRNLYQEVMLETYQLLVSLGDQVRLAPPTPGTPLPALPAQPRLLGLPSQPLDRRGTP
B12: DOMAIN_7716 (protein)
chain: VAFEDVAVYFTAEEWDLLGPNQKSLYSEVMMENYENVSYLADNWKKTIAFAHSQKDFIHKLHQRTHKEDEHHTRAEPCEST
modifications: Pogona vitticeps
B13: DOMAIN_8036 (protein, listed as Alligator mississippiensis)
chain: AQRWEAFEDVALYFTQKEWELLRDGDKVLYQEQMLRNYQALVSLGYQGPTPDLICRIQRGDMELWVCDDEDPKESMWSEGL
B14: DOMAIN_8618 (protein, listed as Mesocricetus auratus)
chain: MESVSFEDVAVNFTPEEWALLNSSQKRLHRDVMQENFRNLAAIAKNQEDPTLEDDYEYLRKILPFAVQTGYRLCENQDYAE
B15: DOMAIN_9332 (protein, listed as Peromyscus maniculatus)
chain: TENAVTYDDVHVGFTWEEWALLDPSQKNLYKDVMLDTYRNLTTIGYSWEGHNIEEHFQSSRRHERHKRSDTGENSSVYTQC
B16: DOMAIN_8953 (protein, listed as Mus caroli)
chain: MNGMTYDDVHVNFTGEEWALLSPSQKRLYKDVMLETYRNLTAIGYSWEDRNIEEHFQRSRRHGRHERSHTGENPSVYTQCN
B17: DOMAIN_8742 (protein, listed as Peromyscus maniculatus)
chain: MGSVSFEDISLDFTWDEWQDLDSAQRTLYRDVMLENYSSLMFLGHCTTKPELIFKLEHGFGPWSLAEASIQSLPGVHKMTV
B18: DOMAIN_8460 (protein, listed as Peromyscus maniculatus)
chain: MNAVTYDDVHVDFTWDEWALLDPSQKNLYKNVMLETYRNLTAIGYKWEEHNINEKFQRSRRNRRHERSHTGEKSYECNQCG
B19: DOMAIN_8492 (protein, listed as Mus musculus)
chain: RERLVSFEDVTVDFSQEEWRRLDSVQRHLYQDVMLEIYSHLLAVGYPVPSPGAIFRIKKRKEARTGEAKLPHPCWCQEVES
B20: DOMAIN_7813 (protein, listed as Columba livia)
chain: WQEPVTFEDVAVYLSHAEWDAMAPEQRELYCSVMLDNYQLLASLGYPGPKPDIVYRLERGEEPWGCAPQSPLSWDGPRSPS
B21: DOMAIN_7774 (protein)
chain: PQDSVTFEEVAVSFSREEWALLTDWQKNLYKDVMRDNYEMLNSLDLAAHKPDIILRIERGQEPCVGRLQRSKARERPNHVF
modifications: Pogona vitticeps
B22: DOMAIN_7607 (protein, listed as Alligator sinensis)
chain: MEPRDAFEDVAVYFTREEWALLDDGDKGLYRDQMLRNYQALVSLGYRGPTPDLICCIQRGKVELWVRDGEDHGEISGSEDL
B23: DOMAIN_8340 (protein, listed as Peromyscus maniculatus)
chain: EQDAVTYEDVHVNFTHEEWALLDPSQKSLYKDVMMETYWNLTCIGYKWEDHNIEEHCQSCRRNGSRCVICHSGHNPCEHKG
B24: DOMAIN_9141 (protein, listed as Mus caroli)
chain: LNSAVTYDDVNVNFTREEWALLDSSQKSLYKDVMLETYRNLTAIGYNWEGHNIEEHCQSSRRHARTHKRTHTGEKSYECDQ
B25: DOMAIN_8282 (protein, listed as Peromyscus maniculatus)
chain: FQNSLTYDDVHINFTCEEWALLDASQKRLYKDVMLETYSNLTAIGYKWEDHNIEEHCQRFRRRGRHKRSRTEERPYECKQC
B26: DOMAIN_8982 (protein, listed as Mesocricetus auratus)
chain: MGAVTYDDVHINFTQEEWALLNPSQKRLYKDVMHDTYSNLTATGYSLEDHYIEEHCQSSRRCRRHLQRHKKVHIGEKPYES
B27: DOMAIN_9303 (protein)
chain: FKGPVTFKDVTVEFTKEEWKLLTPAQRTLYKDVMLENYNHLVSVGYRVSKPNLVFKLKQGKEPWVLEVEFPRRRCPEELWN
modifications: Marmota monax
B28: DOMAIN_9119 (protein, listed as Mesocricetus auratus)
chain: FQNSLTFDDVAVDFTQEEWVLMDQTQRDLYREVMLENYQNLFSAGCEITKPSLISWLEEDLQIGQREDFQEWEMQDTLREQ
B29: DOMAIN_8425 (protein, listed as Peromyscus maniculatus)
chain: HKKSMVFSDVSLDFSQEEWECLGPAQKDLYRDVMLENYSHLLSVAGLHIPKPQVISLLEQGKEPWMIGKELTRGLCSALES
B30: DOMAIN_8545 (protein, listed as Rattus norvegicus)
chain: APLPLTFEDVAIYFSEQEWQHLETWQKELYKQVMRTNYETLISLDNGLPKPELISWMELGRENFGSWGEGQKVDRGIRCSV
B31: DOMAIN_8555 (protein, listed as Cricetulus griseus)
chain: MAFEDVAVYFSQEEWVFLDAAQRALYRHVMLENFALVDSIGLSISRPRVIIQLQRGEEPWVPNRTNTGPGRGTRRRPSLGS
B32: DOMAIN_8881 (protein, listed as Cricetulus griseus)
chain: MAFEDVAVYFSQEEWVFLDAAQRALYRHVMLENFALVDSIGLSISRPRVIIQLQRGEEPWVSNRTNTGPGRGTRRRPSLGS
B33: DOMAIN_9217 (protein, listed as Mesocricetus auratus)
chain: MAFEDVAVYFSQEEWMFLDAAQRALYRHVMLENFALVDSIGLSVSRPRVIIQLQRGEEPWVPNRTNPGPGRSTCRRPSLGS
B34: DOMAIN_8712 (protein, listed as Mesocricetus auratus)
chain: PADRDAVTYDDVHIGFTQEEWVLLNPSQKSLYKDVMLDTYRNLTAIGYRWQDHNIEEHCENSRRHRRKFSCTTKPYESLQN
B35: DOMAIN_7605 (protein, listed as Alligator sinensis)
chain: SKLSEAFEDVAVYFTWKEWALLEAADKMLYRDQMLKNYQALFSLGYRGPTPDLICRIQRGEMELWVSDLEEAGESSLSEDS
B36: DOMAIN_9329 (protein, listed as Peromyscus maniculatus)
chain: NAVTYNDVHVDFTQEEWALMDPSQRNLYKDVMVETYMNLTAIGYNWEDLEVEEHCQNSLKHGRHKRPHTTEKSCEYMGCGK

The first experiment relates to HBEGF locus. The class given is cell-based, human. Conditions: high-throughput screen of dXR repression of the HBEGF gene; change in abundance of each domain in the library before and after diphtheria toxin selection.
Consider B1, for which the “Log2 (fold change)” value was 3.1615. With B2, the “Log2 (fold change)” value came to 2.2019.

B3: the “Log2 (fold change)” value is reported as 3.1151. On the same count and under the same terms, under B4 stands 3.4751; under B5, 2.6649.

The experiment is the same for the next values; noted with them: repressor domain in dXR, repression of the HBEGF gene; abundance of domain in library after vs before diphtheria toxin selection.
As to B6, the “Log2 (fold change)” value came out at 2.7945.

Regarding B7, the “Log2 (fold change)” value came to 3.317.

Consider B8, for which the “Log2 (fold change)” value was 3.2046. Same read-out and setting: with B9 the figure was 2.3521; with B10, 3.3091; with B11, 3.0215. Still for that read-out and setting: with B12 the figure was 3.1171; with B13, 2.3504; with B14, 2.6363. Same read-out and setting: under B15 stands 3.9002. With B16, the “Log2 (fold change)” value is listed as 2.5941. Still for that read-out and setting: with B17 the figure was 2.3354. Same read-out and setting: under B18 stands 3.1352; under B19, 3.3107; under B20, 3.4645. On the same count and under the same terms, under B21 stands 3.427; under B22, 2.7102; under B23, 2.2764. With B24, the “Log2 (fold change)” value worked out at 3.035. Same read-out and setting: with B25 the figure was 3.9882; with B26, 3.1585.

B27: the “Log2 (fold change)” value is 2.5344. With B28, the “Log2 (fold change)” value was determined as 2.2985. Consider B29, for which the “Log2 (fold change)” value is 2.8391.

As to B30, the “Log2 (fold change)” value is on record as 3.1044.

Consider B31, for which the “Log2 (fold change)” value stood at 3.2852. Same read-out and setting: with B32 the figure was 3.743; with B33, 3.8919; with B34, 2.7776. Still for that read-out and setting: under B35 stands 2.8444; under B36, 4.263.
